Key:
[1] = system: RelB (untagged, in RelB:RelE-His6 complex);RelE-His6 (Streptococcus pneumoniae R6;Streptococcus pneumoniae R6); assay: DNase I footprinting; conditions: DNase I footprinting: 40 mM Tris-HCl pH 7.9, 6 mM MgCl2, 1 mM CaCl2, 10 mM NaCl plus 100 mM NaCl, 1 mM DTT, 10% glycerol, 10 ug/mL heparin or 50 ng …
[2] = system: His6-RelB (Streptococcus pneumoniae R6); assay: DNase I footprinting; conditions: DNase I footprinting: 40 mM Tris-HCl pH 7.9, 6 mM MgCl2, 1 mM CaCl2, 10 mM NaCl plus 100 mM NaCl, 1 mM DTT, 10% glycerol, 10 ug/mL heparin or 50 ng …

Substance: PrelBE 199-bp promoter fragment
- binding [1]: 1 µM
- binding [2]: 10 µM

From PMC8071376
